Measured values as given in the supplement of paper PMC7877785.
± gives the uncertainty stated by the source.

Assay: self-splicing fitness, log relative to wild type (ln ratio); higher = more splicing; Tetrahymena group I intron in knt gene, E. coli kanamycin selection, DiMSum; sequences stand for … in CUCUCU…GGAGGGAAAAGUUAUCAGGCAUGCACCUGGUAGCUAGUCUUUAAACCAAUAGAUUGCAUCGGUUUAAAAGGCAAGACCGUCAAAUUGCGGGAAAGGGGUCAACAGCCGUUCAGUACCAAGUCUCAGGGGAAACUUUGAGAUGGCCUUGCAAAGGGUAUGGUAAUAAGCUGACGGACAUGGUCCUAACCACGCAGCCAAGUCCUAAGUCAACAGAUCUUCUGUUGAUAUGGAUGCAGUUCACAGACUAAAUGUCGGUCGGGGAAGAUGUAUUCUUCUCAUAAGAUAUAGUCGGACCUCUCCUUAAUGGGAGCUAGCGGAUGAAGUGAUGCAACACUGGAGCCGCUGGGAACUAAUUUGUAUGCGAAAGUAUAUUGAUUAGUUUUGGAGUACUCGUGGUCG
Method in brief: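 Fitness was computed with DiMSum as the error-weighted combination of replicate fold changes, kanamycin versus none, each normalised to wild type. The library randomised all eight intron nucleotides of the P1ex region, with the intron placed in the knt kanamycin-resistance gene on pET-22b(+) in E. coli BL21(DE3). Six replicate transformations were grown overnight at 37°C or 30°C on LB agar with or without 25 μg/mL kanamycin, plus 100 μg/mL carbenicillin, 50 μM IPTG and 0.2% rhamnose. Pooled colonies were amplicon-sequenced on an Illumina HiSeq 2500.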

Sequence	self-splicing fitness (ln) (30 °C)	self-splicing fitness (ln) (37 °C)
UGCGAGCAAUAUUACGACGG	-1.41 ± 0.15	-0.347 ± 0.16
UGCGAGCAAUAUUACGCAGA	-3.13 ± 0.37	-1.84 ± 0.38
UGCGAGCAAUAUUACGCAGG	-4.38 ± 0.46	-2.18 ± 0.28
UGCGAGCAAUAUUACGCAGU	–	-4.06 ± 0.39
UGCGAGCAAUAUUACGCCUA	-2.48 ± 0.19	-0.762 ± 0.16
UGCGAGCAAUAUUACGCUGC	-3.09 ± 0.25	-2.31 ± 0.29
UGCGAGCAAUAUUACGCUUC	-3.96 ± 0.39	-3.67 ± 0.39
UGCGAGCAAUAUUACGGACA	-0.643 ± 0.14	0.226 ± 0.2
UGCGAGCAAUAUUACGUACA	-2.18 ± 0.2	0.427 ± 0.21
UGCGAGCAAUAUUACGUAUG	-3.11 ± 0.16	-2.29 ± 0.21
UGCGAGCAAUAUUACGUCUC	-0.82 ± 0.28	–
UGCGAGCAAUAUUACGUGUG	-2.78 ± 0.18	-2.15 ± 0.15
UGCUAGCAAUAUUACGAAAA	-2.16 ± 0.15	-1.72 ± 0.15
UGCUAGCAAUAUUACGAACU	-1.12 ± 0.15	-0.251 ± 0.15
UGCUAGCAAUAUUACGAGUU	-1.64 ± 0.11	0.518 ± 0.12
UGCUAGCAAUAUUACGAUCA	0.384 ± 0.07	0.522 ± 0.094
UGCUAGCAAUAUUACGAUGC	-4.2 ± 0.34	–
UGCUAGCAAUAUUACGAUGU	-4.19 ± 0.46	-2.59 ± 0.38
UGCUAGCAAUAUUACGCAAU	-3.02 ± 0.3	-2.31 ± 0.29
UGCUAGCAAUAUUACGCACA	-1.12 ± 0.13	0.22 ± 0.11
UGCUAGCAAUAUUACGCAUC	-3.95 ± 0.21	-2.45 ± 0.17
UGCUAGCAAUAUUACGCAUG	-3.03 ± 0.34	-0.445 ± 0.19
UGCUAGCAAUAUUACGCGAU	-4.01 ± 0.39	-1.03 ± 0.15
UGCUAGCAAUAUUACGCGCA	-1.97 ± 0.23	-0.803 ± 0.2
UGCUAGCAAUAUUACGCUAG	-2.28 ± 0.22	-2.65 ± 0.34

Sequence	self-splicing fitness (ln) (30 °C)	self-splicing fitness (ln) (37 °C)
UGCUAGCAAUAUUACGCUCA	-0.263 ± 0.15	0.646 ± 0.16
UGCUAGCAAUAUUACGGAAC	-1.04 ± 0.5	–
UGCUAGCAAUAUUACGGCAC	-3.7 ± 0.42	-2.19 ± 0.39
UGCUAGCAAUAUUACGGUCA	0.0813 ± 0.11	0.529 ± 0.13
UGCUAGCAAUAUUACGGUGC	-3.92 ± 0.27	-2.38 ± 0.26
UGCUAGCAAUAUUACGUACA	0.0476 ± 0.1	0.533 ± 0.17
UGCUAGCAAUAUUACGUAUU	-3.06 ± 0.18	-1.72 ± 0.24
UGCUAGCAAUAUUACGUCAA	-1.87 ± 0.13	-1.13 ± 0.12
UGCUAGCAAUAUUACGUGCA	-2.54 ± 0.32	-1.99 ± 0.28
UGCUAGCAAUAUUACGUGGU	-3.36 ± 0.22	-2.13 ± 0.24
UGGAAGCAAUAUUACGAACA	-0.687 ± 0.13	-0.937 ± 0.17
UGGAAGCAAUAUUACGAAUA	0.136 ± 0.41	-0.685 ± 0.28
UGGAAGCAAUAUUACGACGA	0.0371 ± 0.18	-0.862 ± 0.15
UGGAAGCAAUAUUACGAGCU	-1.95 ± 0.16	-0.801 ± 0.15
UGGAAGCAAUAUUACGAUAU	-2.59 ± 0.18	-2.39 ± 0.21
UGGAAGCAAUAUUACGAUGU	-1.75 ± 0.21	-2 ± 0.22
UGGAAGCAAUAUUACGCAGU	-2.85 ± 0.4	-1.6 ± 0.18
UGGAAGCAAUAUUACGCCAU	-3.64 ± 0.28	-2.07 ± 0.36
UGGAAGCAAUAUUACGCCCU	-0.2 ± 0.14	-0.0341 ± 0.18
UGGAAGCAAUAUUACGCGAC	-2.77 ± 0.37	–
UGGAAGCAAUAUUACGCGCC	-3.22 ± 0.32	-1.54 ± 0.31
UGGAAGCAAUAUUACGCUGA	–	-0.713 ± 0.4
UGGAAGCAAUAUUACGGAGA	-2.7 ± 0.22	-1.31 ± 0.13
UGGAAGCAAUAUUACGGAUA	-0.862 ± 0.084	-1.04 ± 0.088
UGGAAGCAAUAUUACGGGAU	-1.89 ± 0.17	-2.46 ± 0.28

Sequence	self-splicing fitness (ln) (30 °C)	self-splicing fitness (ln) (37 °C)
UGGAAGCAAUAUUACGGUCU	-1.94 ± 0.14	0.0438 ± 0.16
UGGAAGCAAUAUUACGUCGA	-1.02 ± 0.072	-0.272 ± 0.089
UGGAAGCAAUAUUACGUCGU	-2.12 ± 0.18	-2.19 ± 0.25
UGGAAGCAAUAUUACGUCUG	-2.56 ± 0.25	-1.52 ± 0.2
UGGAAGCAAUAUUACGUUUG	-0.722 ± 0.082	-0.645 ± 0.13
UGGCAGCAAUAUUACGAAAA	-0.512 ± 0.082	-0.934 ± 0.1
UGGCAGCAAUAUUACGAAGA	-1.98 ± 0.2	-1.41 ± 0.2
UGGCAGCAAUAUUACGACCA	-0.399 ± 0.2	-0.654 ± 0.2
UGGCAGCAAUAUUACGAGAC	-3.74 ± 0.48	-1.09 ± 0.45
UGGCAGCAAUAUUACGAUAU	-2.5 ± 0.16	-1.37 ± 0.21
UGGCAGCAAUAUUACGAUCC	-0.653 ± 0.3	-0.564 ± 0.29
UGGCAGCAAUAUUACGCCCG	-0.568 ± 0.14	-0.317 ± 0.21
UGGCAGCAAUAUUACGCCUU	-1.65 ± 0.14	-0.596 ± 0.21
UGGCAGCAAUAUUACGCGAG	-1.96 ± 0.1	-0.954 ± 0.097
UGGCAGCAAUAUUACGCUAU	-3.89 ± 0.25	-1.8 ± 0.2
UGGCAGCAAUAUUACGCUUC	-2.18 ± 0.28	–
UGGCAGCAAUAUUACGGCGU	-1.32 ± 0.12	-0.678 ± 0.14
UGGCAGCAAUAUUACGGCUG	-3.05 ± 0.33	-2.38 ± 0.46
UGGCAGCAAUAUUACGGGCG	0.162 ± 0.071	0.586 ± 0.1
UGGCAGCAAUAUUACGGGCU	-3.06 ± 0.16	-2.02 ± 0.15
UGGCAGCAAUAUUACGGGUC	-3.28 ± 0.29	-1.28 ± 0.28
UGGCAGCAAUAUUACGGUUU	-0.212 ± 0.061	-0.422 ± 0.078
UGGCAGCAAUAUUACGUGUU	-3.93 ± 0.19	-2.2 ± 0.12
UGGCAGCAAUAUUACGUUCC	-2.02 ± 0.17	-1.09 ± 0.18
UGGCAGCAAUAUUACGUUCU	0.076 ± 0.06	0.0497 ± 0.069

Sequence	self-splicing fitness (ln) (30 °C)	self-splicing fitness (ln) (37 °C)
UGGGAGCAAUAUUACGAGUA	-3.85 ± 0.43	-2.59 ± 0.44
UGGGAGCAAUAUUACGCCAU	-3.45 ± 0.33	-0.288 ± 0.26
UGGGAGCAAUAUUACGCGCG	-1.51 ± 0.3	-0.924 ± 0.35
UGGGAGCAAUAUUACGCUUU	–	-2.01 ± 0.31
UGGGAGCAAUAUUACGGUUA	-3.22 ± 0.37	-1.65 ± 0.16
UGGGAGCAAUAUUACGGUUU	-3.58 ± 0.16	-3.35 ± 0.23
UGGGAGCAAUAUUACGUGAG	-2.33 ± 0.18	-1.14 ± 0.14
UGGUAGCAAUAUUACGAAAC	-4.02 ± 0.42	-2.42 ± 0.45
UGGUAGCAAUAUUACGACGA	-0.462 ± 0.14	1.24 ± 0.19
UGGUAGCAAUAUUACGACUU	-0.197 ± 0.16	0.212 ± 0.16
UGGUAGCAAUAUUACGCCCA	-0.775 ± 0.21	-1.14 ± 0.23
UGGUAGCAAUAUUACGCCGG	-1.3 ± 0.12	-0.73 ± 0.13
UGGUAGCAAUAUUACGCGGG	-2.93 ± 0.2	-2.47 ± 0.2
UGGUAGCAAUAUUACGCGUA	-1.26 ± 0.24	-1.56 ± 0.27
UGGUAGCAAUAUUACGCUAG	-2.07 ± 0.13	-1.82 ± 0.16
UGGUAGCAAUAUUACGCUGU	-3.24 ± 0.19	-2.12 ± 0.17
UGGUAGCAAUAUUACGGAAA	-1.86 ± 0.28	-1.81 ± 0.24
UGGUAGCAAUAUUACGGAUA	-1.92 ± 0.24	-2.72 ± 0.27
UGGUAGCAAUAUUACGGGAA	-2.02 ± 0.22	-1.6 ± 0.19
UGGUAGCAAUAUUACGGUAU	-3.64 ± 0.32	-1.87 ± 0.4
UGGUAGCAAUAUUACGUAGA	-2.54 ± 0.17	-1.16 ± 0.14
UGGUAGCAAUAUUACGUAGG	-1.25 ± 0.14	-1.35 ± 0.25
UGGUAGCAAUAUUACGUAUC	–	-2.38 ± 0.45
